Assay results published in a protein production outcome set (Wang et al. 2014).

assay: label from the status in PepcDB records
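Further: failed if final PepcDB status was selected cloned or expressed and not failed if soluble or beyond.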

Sequence	protein production
MIFIKKPSLKALSCASILFALSGCVPPNQFGEDYSRDVCKTKRDELIALDNHFSSNMVAGGIIGTLAGAGLGAAAAAATNGDIITATLIGAAAGMAVGAGSAYWNELSKQHGEGELLLFSLLGDMRRDEEKVTKAQIALDNLMSCRRTEAAQVHADYRAKRISAQEAKTRMEAIRRRAEKDVSVAKDINKGVQDRRGSYEYAFEQSKKIKTKNKKDKKKIEKTYTSMDKYCGSYNTSVQVAETSLNTEFKADGFTSSYLIYPDSTPNTQISCR	failed
MIFMRKVVAEVSIIPLGKGASVSKYVKKAIEVFKKYDLKVETNAMGTVLEGDLDEILKAFKEAHSTVLNDVDRVVSSLKIDERKDKENTIERKLKAIGEL	not failed
MIFNSARLKDMDIQYQILRQIEKYQTIIIHRHQRPDPDAVGSQLGLKNGLQAAFPEKNIYAVGKEITGLAWVGSMDIIPDSTYENALVIVIDTANVARIDDDRFKNGDKLIKIDHHPNDEPYGDLMWVEPGRSSCSEMVTFFLDDNIPLLLTDEAARNLYIGIVGDTGRFMYASTPETFIAVSKLYHFSIDYERVNREMSSISLVQARFSGKVYDEMKVEDHVGWITLTKAEIEAGHLGNEGTNFVVGMFGSIKEVLVWANFIENDDGSYRVRLRSKGPNVNEIAKLHNGGGHDMASGAKAKDQTEIDQIIKELKESANIFSTSLEKTAK	failed
MIFSQRIYFIILFHVLLILVTAGTGLWLVVSHTGYIIGGILLLCSLFQIGALTRQLNTFNRKIRLFFDAVQDKDNMLYFPEANVGKEQAQLNRSLNRLNDLLARTKGESHKQEHFYQSLLEEVPSGVLAWDDSGRIIIANSAAFSLLKCNRLYTETQLAQLLNATGIRKSLSISEKKMILDGETITILSIKDIGDELSDKENESWSKLTHVLTHEIMNTIAPILSLSQTLSERPDINEKSARGLRIIQAQSERLMEFTESFRHLSYLPHPEKRRFALTEMLRNLEELLQSDFRERGIRFMLQCVPDPIETDGDPNQLSQVFLNLLKNAMQALEGQADGRIILRVRRADRLQVEIEDNGPGIPEEIREQIFIPFFTTKTEGSGIGLSLCKQIIRQHDGHLSIRESRPGQTIFSLDLP	failed
MIGGSLDAFIGSVHRMAAALDGTIELVCGAFSSNAARSIQTGEALHLPKERIYASYEEMIVQEAQLPADVRMQFVSIVTPNHLHAQPALLALKHGFHVLCEKPLAFSVAEAEQLGIQVKETGLLFGLTHTYTAYPMVKEARDLIAKGKLGTIRKIIVEYPQGWLSAPIESDGQKQAGWRTDPAQAGLSCCVGDIGTHAENIAEYITGLKITELSADVSSVVAGRKLDDDANILLRFDNGAKGVLIASQIANGEENELKIRVYGEHAGLEWLQSEPNTLIVKQNDQPTQLRRAGANHSYLSEHARLHCRIPAGHPEGYIEAMANIYRNFSKAVHSFEDQITHNPLLDYPTIEDGIRGMKFIETVIISGKENATWKQLLEHHHHHH	not failed
MIGKVLEGRYEIVSELGGGGMARVYRGQDRLLNRNVTIKILREQYASDKEFLARFQREAQAVASLSHPNVVSIYDVGQEDDLHYLIMEYVEGRSLKDLISERAPLPPLEAIDISLQICDALEHAHENGVIHRDIKPHNILITRNGRVKVTDFGIAQAVSEVTMSQSGTMIGSVHYLAPEQARGGVIGATADIYSLGIVLYEMLTGDLPFHGETPVAVALKHLQENPRPVRELNPNVPPALERVVMRTLEKDPARRYPSAAALRSDLLAVRNALADATFATQVLPAIETPDPPSTLPKPRRRPRVWAWVLMALLFLGLAAAGLWAGFRYYLAVGETLVPSVVGLPEGQALEQLAAAGLRGQVIARQYDASVPAGQVMAQDPGPNQRVRRGRVVALTVSQGARLVRVPSVIGETERNARLILENANLKVAADTLKVYHPSIPAGSVVDQNPPANTQQPEGTEVRLIISKGPEPQFTTAPSVVGLSLAEAQQKLLEAKLKQGTLTYQRSDNQFPGYIIAQDPREGSNVLQGSAINLVVSQGPGPVQKQVGVTIDPAPDDKDHEVRIVVTDAKGTNEVLKKKQKMGQQIQATINYFGKGKLQVFRDGNVIYEQDLQ	failed
MIGLVPSPIELSYISDISVPKAASAPAYYDLRALNRLTSVKDQGTAGTCWAFASYSSLESYLKPGEDWDFSENNMKNLLSSAYQEGFDRDPNDGGNRIQAAAYLARWSGPVKESDDPYSTFSGVSPADLPIKKHVQDVIFIPDRADPLDNEAIKWAVQNYGAVYTTMHYNNTFYSPEYYSYYFNGTSEPNHAVAIVGWDDSYDRNNFSKVPPGNGAFIMKNSWGPEWGDKGYFYVSYYDSKAGNGSSVFTAENPENYEYIYQYDPFGWVSSMGYSKPLAWVSNVFTAKSDEVLKAVSFYTTDSNCNYEIYIYTDPVSGPINPAGPVLSKNGTCLTAGYHTIPLDSEVRLIAGQKFSVVIKLTNPSYRYLIPLEKPKDSWSSKARANTGESFISSSGSTWTDVNTSYANSNVCIKAFTNSVLLPIANFSSNITEGYAPLSVQFRDLSGHSTDRTWDFENDGNIDSVEANPIHLFSAPGSLEHHHHHH	failed
MIGMDHLAIGTYEGFLIGYDIDTQPNDPKTTTGCTLRYAYAAHERSIRCIAGSFPILASASVDESIKVYQLDQLQELATLYDLQVPVNSVDIQLQGGLLSGGEDGKLVYYPYGGWSKPKYLKGHKGNVHSVALHPTGQICLSVARDKCLKLWKTNGDCVCSLELPDEAFIVKWTEDGQGWVIATQTSFSVHSLQTGLIQQWEYSTRLVCLCALTNDIFVVGGMDGHLRVGENKPIQVHKVDGGSLVKGIGVGRDGCIYSLSSKGVLEMVAPSRQLEIQNGVVKRYIE	failed
MIGYVLNGEHEEIPYGELMALLEIFNYNGSVERLKRYVITEDSPAKDIVKRSGYIDEGHRIIFRYNLEEKSVDLVDKIVNDFINSFKDFVANIDYPDIDESKSYAVRVLKLHKDEFTKSIDSLRIEKEIGGIIKLKTNAKVNLTKPDILVRVVILENTFFISNVLEMRDREYFQKNRPHLRKYFHPGCMLPKLARAMVNLARVKEGDIVLDPFCGTGGFLIEAGLIGAKLIGCDIDWRMASGTLINLEEYNLLDKVIKVKRLDAKYVKEFLNELNIEKVDAIVTDPPYGISTAKKGEIEKILETLPEVIKDNGYFVFAYPKKIELDMELEGLYKVYIHKGLIRHIHVYKKI	failed
MIHITSQACFLWHTTINKICNRPMFNPLTIRFWGVRGSIPCPGSHTVRYGGNTPCVEIQANGQRIILDGGTGLRVLGEHLMGQQPVTAHLFFTHTHWDHIQGFPFFQPAFVPGNQFHIYAVPGKNGQGIERRLNDQMLHPNFPVPLQIMGGDLRFYDLEVGERVHLGDGVVVSNEALNHPGGGVGYRVSWQGIHVAYITDTEHLPDRLHPGAFALADHADVMIYDATYTDEEYYHPQQSKVGWGHSTWQEAVKLAQAAQVKQLILFHHDPSHDDDCLDRIGELARAQFPQTLLAREGLIISVYPNVIHFPATPQASLEHHHHHH	failed
MIIESRIEKGKPVVGMETTVFVHGLPRKEAIELFRRAKEISREKGFQLAVIGILKGKIVAGMSEEELEAMMREGADKVGTREIPIVVAEGKNAATTVSATIFLSRRIGIEVVVTGGTGGVHPGRVDVSQDLTEMSSSRAVLVSSGIKSILDVEATFEMLETLEIPLVGFRTNEFPLFFSRKSGRRVPRIENVEEVLKIYESMKEMELEKTLMVLNPVPEEYEIPHDEIERLLEKIELEVEGKEVTPFLLKKLVEMTNGRTLKANLALLEENVKLAGEIAVKLKRS	not failed
MIIGIDLGTTNSAVAYIDDSGNPTILPNREGERVTPSVIFFEDGSPVIGSTAKSISVSDPTNTVQFVKRQMGNASYKFPIGGEVFTPEDLSALILKRLKEDAEEAIGAKVTKAVITVPAYFDDAQRKATQDAGRIAGLHVLKVINEPTAAALAYGLANREQKQNVMVYDLGGGTFDVTLIQLNQDEVVVKATGGDRNLGGFDFDNKIFELVEQKFEEEHGLDLYDDLNAVQDLREKAEACKKMLSSRKKSVITLSSQGRTVKVEVTKEKFDELLSPLLSRTALIMKNVLMDAELSWGDIDKIVLVGGSTRVPAVSDLIERTTGIKPSKDVNPDEVVALGAAIQGSLLQVDNEASNNAEEFKPKTRVVDVNSHSLGILIHDNNTGGFINQKMIVRNTPIPASEEAVFYTVNDGQTSLHVQVTEGEDSDPDFVKVIGESNLDLRGSKPQGYPVRFIFTYDENGVVHVYGKDENTGQHLGEMQIERKSNLTEAAIEKKAEKLAGISVE	failed
MIIKNKMVKRLISTFLMSLLLASMMLVIGAGNVYAQGSVSSTSLQVSADGSDYYIIGSDFYNHFVRPTTVDLAKNKVVYNKQILTVYNGRIDKWKMSFLNQDSSGKSWFKFLSYPEATKGDIKITYTTDGINYSDSKPSLEQLKGYMVELLKPIVYPDDANNQENDIEVSFQLSPDTDYILSNSNLNKQFIPFSGENWLQNYSPYPFFTDRNQLQFVYPDYSKGVMVKYVDEEGNEIHDPQTISGSKGDVYDASTDQYKLVLDGYTLDTSKLPQNSIGNFKEALQTVTYVFSKNPVLAADVTVRYVDKENNPISEDIILQGNIGENYYTDKKILKIIL	failed
MIIKPAGDSAFLISFGDEISEEINDRVHSLAKAIEKESPEWLVELVPAYSSLLVIYDPLKASYEEVESYLKRISAREVERIKGKTIEIPVAYGGEFGPDIEFVAQYNGLSVDDVIEIHSKPLYRVYFLGFLPGFAYLGGMDERIATPRLEKPRLKVPAGSVGIAGKQTGWYAIESPGGWRIIGRIPLRTFNPGKVPPSIVLPGDYVKFVPIDEKEFWEIYGREWE	not failed
MIILRRLSKEKHHQVNPLWHIYRKIKFVKVLKQTLIIEIARFVPSMKLKNKIYKKLLKMDVGNHTSFAYKVLPDLFYPEYISVGKNTVIGYNTTILTHEVLVDEWRVGKVIIGDYTLIGANTTILPGITIGNHVKIGAGTVVSKDVPDYSFAFGNPMQIQLDSGGDNEWHKKKITSFQ	failed
MIIQIVLWDCYTVPYFCFEKRRFMEELKFEELELCPEILKAVKHMGFEEASPIQSKAIPVIMSGKDVIGQAQTGTGKTAAFGIPLLEKIDPKNKKLQAIVLCPTRELAIQVAEEIRNLAKYMHGIKVLPIYGGQEIVKQIRSLKSGTQLVIGTPGRVMDHMRRKTMKMDHVHTIVLDEADEMLNMGFREDIETILEGIPQEHQTVLFSATMPKAILEITKQFQTNAELVKVTKKELTVPNIEQFYYEVKPKNKEEVLSRLLDIYTPKLSVVFCNTKKQVDLLVNGLLGRGYFAAGLHGDMKQAQRDRVMQGFRSGKTDILVCTDVAARGIDVDDVEAVFNYDLPQDDEYYVHRIGRTGRAGRVGRSFSFVSGREVYKLKEIQRYCKTKIYAQKVPSLNDVANTKMENVLEEIEQIIENEDLTKFLQIIEERVNESDYTAMDLAAAFLKYCSGQQETEEKDMEFGDTGAEEAGMVRLFINIGKKNKAKPGDIVGAIAGESGIPGKLIGTIDMFDKYTFVEVPREYARDVLNAMNHTKIKGKSVAVEPANQK	failed
MIIRIKHYGEVKIEDSKNLLLNLIENRIGIDNICNGKGTCGKCKVRFRQGVPEATSADLRYLSVEELEEGVRLACQVKPQKGMEIDVTLSNSFDRKNTVLEHHHHHH	failed
MIISSLTNPNFKVGLPKVIAEVCDYLNTLDLNALENGRHDINDQIYMNVMEPETAEPSSKKAELHHEYLDVQVLIRGTENIEVGATYPNLSKYEDYNEADDYQLCADIDDKFTVTMKPKMFAVFYPYEPHKPCCVVNGKTEKIKKLVVKVPVKLI	not failed
MIITVASFKGGVGKTTTAVHLSAYLALQGETLLIDGDPNRSATGWGKRGSLPFKVVDERQAAKYAPKYQNIVIDTQARPEDEDLEALADGCDLLVIPSTPDALALDALILTIETLQKLGNNRFRILLTIIPPYPSKDGDEARQLLTTAGLPLFKRGIKRYSAFQKASLNGVVVSEVSDSKAGIAWSDYKATGKEIVEEILILEHHHHHH	not failed
